Laboratory results as given in article PMC8469834.

How the values were obtained:
[1] = system: T1, CadR (Pseudomonas putida KT2440), ORF:5b9d404e; experiment: EMSA; conditions: 10 mM Tris-HCl pH 8.0, 50 mM KCl, 5 mM MgCl2, 5% glycerol, 28 °C 20 min; EMSA 10 nM FAM probe (carbamyl phosphate with CzcR3); footprinting 40 nM probe, about …
T1 sequence: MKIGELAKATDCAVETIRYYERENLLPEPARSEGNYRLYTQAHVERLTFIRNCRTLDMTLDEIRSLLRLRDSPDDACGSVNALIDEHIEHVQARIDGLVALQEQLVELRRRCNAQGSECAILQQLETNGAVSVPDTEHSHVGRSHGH

[2] = system: T2, CzcR3 (Pseudomonas putida KT2440), ORF:67c4da9b; experiment: DNase I footprinting; conditions: 10 mM Tris-HCl pH 8.0, 50 mM KCl, 5 mM MgCl2, 5% glycerol, 28 °C 20 min; EMSA 10 nM FAM probe (carbamyl phosphate with CzcR3); footprinting 40 nM probe, about …
T2 sequence: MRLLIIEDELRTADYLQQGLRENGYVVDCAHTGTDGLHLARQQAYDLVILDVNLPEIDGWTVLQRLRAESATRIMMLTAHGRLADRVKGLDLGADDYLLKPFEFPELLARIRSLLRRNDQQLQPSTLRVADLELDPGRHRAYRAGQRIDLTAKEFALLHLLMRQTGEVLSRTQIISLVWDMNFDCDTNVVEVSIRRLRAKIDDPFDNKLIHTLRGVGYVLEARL

[3] = system: T2, CzcR3 (Pseudomonas putida KT2440), ORF:67c4da9b; experiment: EMSA; conditions: 10 mM Tris-HCl pH 8.0, 50 mM KCl, 5 mM MgCl2, 5% glycerol, 28 °C 20 min; EMSA 10 nM FAM probe (carbamyl phosphate with CzcR3); footprinting 40 nM probe, about …
[4] = system: T1, CadR (Pseudomonas putida KT2440), ORF:5b9d404e; experiment: DNase I footprinting; conditions: 10 mM Tris-HCl pH 8.0, 50 mM KCl, 5 mM MgCl2, 5% glycerol, 28 °C 20 min; EMSA 10 nM FAM probe (carbamyl phosphate with CzcR3); footprinting 40 nM probe, about …
[5] = target: CzcR3, the response regulator of two-component system CzcRS3 (Pseudomonas putida KT2440) (UniProt F6KX51); experiment: electrophoresis analysis; purified His-tagged CzcR3 alone, in vitro; kind of gel and conditions not told in the text (Figure S1)

stoichiometry N [5] | Substance | binding [1] | binding [2] | binding [3] | binding [4]
 | TGTAAAACGACGGCCAGTTACAGGCGCGGGTTTACTCGCGAAGAGGCCCGAACAGACAGCCAGATAACAGCAGAATTACAAATCCGTTATCTGCACCGCAGGCCTTTTTTCATGCCGTAACATTGGGGCGCTTGACAAAGATGTCACTACAAAGTCAAGAATCGTCCCCTTTCAACATACCGAGCCCCCCATG (double strand) [czcRS3 (czcR3) promoter probe, mutated CadR site] | no binding |  |  | 
 | GTATCGAAATCATCGTGTCGGGTTGGGTTTCCCAGTATTTACGGGCATTACAAAGCTTTCTTACGAAATTGTAATTTTCTAGCCACCCCTCTGATAGCTACCGCTCATTAGAGTGCCATCACCTAATCAAGTGGGGCTTGGCAGCTGTTTCGGCGTTCTCGCCAAGCTTTATCGAAGTTTGTGCACGAGGACCATCAAAGTGCCCCGGTATAACCGCA (double strand) [czcC1 (czcCBA1) promoter probe] |  | binds | binds | 
 | TGTAAAACGACGGCCAGTTACAGGCGCGGGTTTACTCGCGAAGAGGCCCGAACAGACAGCCAGATAACAGCAGAATTACAAATCCGTTATCTGCACCGCAGGCCTTTTTTCATGCCGTAACATTGGGGCGCTTGACCCTGATGTCACTACAGGGTCAAGAATCGTCCCCTTTCAACATACCGAGCCCCCCATG (double strand) [czcRS3 (czcR3) promoter probe, native] | binds | binds | binds | binds
 | GATTATCGAACTTATTGGGCGTTGACTGTCCTGTACCCAGCCGTGCAAAGCTGCTTCTGCAACGAACCGCAGTGCGTCATTACAAAATTGTAATCTTGCCGCCACCGCCCCGATAACCAGCCCTTTCTACAGTCCCTGGCCAATGCT (double strand) [czcC2 (czcCBA2) promoter probe] |  | binds | binds | 
2 | CzcR3, the response regulator of two-component system CzcRS3 (from UniProt F6KX51 1-224) (natural protein) |  |  |  | 
